Several values for one entry are separate records, joined by “and”; a condition that tells them apart may be missing. Identical values can stand only once. Like-named read-outs stand apart in the source and are kept apart here.
Experiments:
[1] = biological target: T1, T. guaymasensis ADH (Thermococcus guaymasensis, UniProt F8S123); experiment: Kinetic parameters, alcohol oxidation with NADP+; format: biochemical; conditions: co-substrate NADP^+ (0.4 mM)
Experimental: (§1) The purified enzyme (0.25 μg) initiated the enzyme assay. […] The protein concentrations of all samples were determined using the Bradford method and bovine serum albumin served as the standard protein (Bradford 1976).
(§2) Apparent values of Km and Vmax were calculated using the curve fittings of SigmaPlot (Systat Software Inc., San Jose, Calif., USA).

[2] = biological target: T1, T. guaymasensis ADH; experiment: Kinetic parameters, ketone reduction with NADPH; format: biochemical
Experimental: as §1, §2

[3] = biological target: T1, T. guaymasensis ADH; experiment: Stereoselective conversion between acetoin and 2,3-butanediol (chiral GC); format: biochemical
Experimental: All the reactions were carried out at 30° C. for 24 hours unless specified. After that, the reaction mixture (1 ml) was extracted with 1 ml ethyl acetate or dichloride methane with shaking on a Gyrotory water bath shaker model G76 (New Brunswick Scientific Co., INC., NJ, USA) at 350 rpm for 30 min (room temperature). The stereoselectivity of the purified enzyme was determined using the Shimadzu GC-14A gas chromatography equipped with a CP-Chirasil-Dex CB column (0.25 mm ID×25 m length, Varian Inc., Palo Alto, Calif., USA). The following GC operating conditions included the FID detector (250° C.) at a sensitivity range of 10 and helium as the carrier gas at a linear velocity of 40 cm s^−1. […] The reaction mixture after extraction (0.5 μl) was directly applied onto the injector (200° C.) for each assay. The peak areas were quantitated using specific external standards.

[4] = ADH specific activity (spectrophotometric enzyme assay); format: biochemical; conditions: 80° C.; for Specific activity: standard assay
Experimental: as §1
The reaction was initiated by adding enzymes.

[5] = Experimental: The effect of pH on the enzyme activities was determined over a range of 5.5-11.4. The buffers (100 mM) used were phosphate (pH 5.5-8.0), EPPS (8.0-9.0), glycylglycine (9.0-9.7), and CAPS (9.7-11.4). The effect of the temperature on the enzyme activity was examined at temperatures from 30 to 95° C. […] Residual activity was assayed at various time intervals under the standard assay conditions. Substrate specificity was determined using primary and secondary alcohols (50 mM), diols and polyols (50 mM), or aldehydes and ketones (6 mM) under standard assay conditions.
(§3) The effect of the temperature on the enzyme activity was examined at temperatures from 30 to 95° C. The activities were measured using standard assay conditions. Enzyme thermostability was evaluated by incubating the enzyme in sealed serum bottle at 80° C. and 95° C. respectively, and measuring the residual activities at different time intervals under the standard assay conditions.

[6] = Oxygen sensitivity (residual activity after exposure to air); format: physicochemical; conditions: for t1/2 upon exposure to the air: room temperature
Experimental: The effect of oxygen on enzyme activity was investigated by exposing the enzyme samples in the air at room temperature and determining the residual activity after oxygen exposure. The exposure was performed in the presence or absence of DDT and SDT. The residual activities of each sample at different time intervals were tested parallelly under the standard assay conditions.

[7] = remark: listed apart in the source
Text: Enzymes resistant to solvent inactivation are of great interest from scientific and practical points of view.

[8] = Optimum pH of enzyme activity; format: biochemical
Experimental: (§4) The effect of pH on the enzyme activities was determined over a range of 5.5-11.4. The buffers (100 mM) used were phosphate (pH 5.5-8.0), EPPS (8.0-9.0), glycylglycine (9.0-9.7), and CAPS (9.7-11.4). The effect of the temperature on the enzyme activity was examined at temperatures from 30 to 95° C. Enzyme thermostability was determined by incubating the enzyme in sealed serum bottles at 80° C. and 95° C., respectively. Residual activity was assayed at various time intervals under the standard assay conditions. Substrate specificity was determined using primary and secondary alcohols (50 mM), diols and polyols (50 mM), or aldehydes and ketones (6 mM) under standard assay conditions.
All the catalytic properties of native and recombinant TgADH were determined using the in vitro enzyme assay described above. The optimal pH of ethanol-dependent oxidation of native and recombinant TgADHs was determined by testing and comparing the enzyme activity at a series of pHs. Standard enzyme assay at 80° C. were applied using a set of 100 mM buffers: HEPES (pH 6.5, 7.0, 7.5 and 8.0), EPPS (pH 8.0, 8.5, 8.8, 9.0), glycine (pH 9.0, 9.5, 10.0) and CAPS (pH 10.0, 10.5, 11.0). The optimal pH of acetaldehyde-dependent reduction of native and recombinant TgADH was measured between pH 5.5 and 9.5 using the following buffers (100 mM): citrate (pH 5.5 and 6.0), PIPES (pH 6.0, 6.5 and 7.0), HEPES (pH 7.0, 7.5 and 8.0), EPPS (pH 8.0, 8.5, and 9.0), and glycine (pH 9.0 and 9.5).

[9] = Temperature dependence of enzyme activity; format: biochemical
Experimental: as §4, §3

[10] = cited from earlier work

C[C@H](O)[C@H](C)O [(2S,3S)-(+)-2,3-butanediol]
Apparent Vmax [1]: 769 U mg^−1 | kcat [1]: 512 s⁻¹

nicotinamide adenine dinucleotide phosphate [NADPH]
Apparent Km for NADPH, times lower than for NADP^+ [2]: 40 times

B1: TgADH: alcohol dehydrogenase purified from Thermococcus guaymasensis, SEQ ID NO:4, homotetramer, zinc-containing, NADP^+-dependent (protein, listed as Thermococcus guaymasensis)
chain: SKMRGFAMVDFGKAEWIEKERPKPGPYDAIVKPIAVAPCTSDIHTVFEAAFPREMCEFPRILGHEAVGEVVEVGSHVKDFKPGDRVVVPAITPDWRTLDVQRGYHQHSGGMLAGWKFSNPLKEGGKDGVFAEYFHVNDADMNLAHLPDEIKPEVAVMATDMMTTGFHGAELADIPLGGTVAVIGIGPVGLMAVAGARLLGAGRIIAVGSRPVCVEAAKYYGATDIVNRREHPDIAGRILELTGGEGVDSVIIAGGNVDVMKTAVKIVKPGGTVANINYFGSGDYLPIPRIEWGQGMAHKTIKGGLCPGGRLRMERLLDLIKYGRVDPSRLITHKFKGFDKIPEALYLMKDKPKDLIKPVVIIEE
modifications: homotetramer, zinc-containing
Chiral compound synthesis preference [3]: R-configured | Enzyme (specific) activity ([4]; 2-butanol as assay substrate): 1149 U mg^−1 | Specific activity [4]: 1049 U/mg | Thermostability [5]: 24 hr at 95 °C | t1/2 (thermostability) [5]: 70 h | Activity after incubation ([5]; 80° C. for 40 hours): 60% | Activity after exposure to air (in words) ([6]; exposed to air for a week): lost activity | t1/2 upon exposure to the air [6]: 6 h | t1/2 upon exposure to the air ([6]; listed as T. guaymasensis ADH): about 4 hours | Enzyme activity remaining, of full activity [7]: about 40% | Methanol concentration at which half of full activity remained [7]: about 24 % (v/v) | Methanol concentration up to which the enzyme was active [7]: up to 40 % (v/v) | Solvent tolerance ([7]; methanol): 24% methanol | Enzyme activity retained (in words) ([7]; methanol up to 5% (v/v)): almost its full activity | Optimal pH, acetaldehyde reduction [8]: 7.5 | Optimal pH, ethanol oxidation [8]: 10.5 | Optimal pH, formation of alcohols (2-butanone reduction) [8]: 7.5 | Optimal pH, oxidation of alcohols (2-butanol) [8]: 10.5 | Optimal temperature ([9]; tested 30 to 95° C.): over 95 °C

B2: recombinant TgADH: recombinant wild-type TgADH polypeptide (SEQ ID NO: 8) expressed in E. coli BL21-codon plus RIL with vector pET30a (protein)
chain: MHHHHHHSSGLVPRGSGMKETAAAKFERQHMDSPDLGTDDDDKAMADIGSEFMSKMRGFAMVDFGKAEWIEKERPKPGPYDAIVKPIAVAPCTSDIHTVFEAAFPREMCEFPRILGHEAVGEVVEVGSHVKDFKPGDRVVVPAITPDWRTLDVQRGYHQHSGGMLAGWKFSNPLKEGGKDGVFAEYFHVNDADMNLAHLPDEIKPEVAVMATDMMTTGFHGAELADIPLGGTVAVIGIGPVGLMAVAGARLLGAGRIIAVGSRPVCVEAAKYYGATDIVNRREHPDIAGRILELTGGEGVDSVIIAGGNVDVMKTAVKIVKPGGTVANINYFGSGDYLPIPRIEWGQGMAHKTIKGGLCPGGRLRMERLLDLIKYGRVDPSRLITHKFKGFDKIPEALYLMKDKPKDLIKPVVIIEE
modifications: Wild-type with vector coding region
Specific activity [4]: 1079 U/mg and 1073 U/mg | Specific activity ([4]; listed as recombinant enzyme): 1073 U/mg | t1/2 (thermostability) [5]: about 26 hours | Enzyme activity after heat treatment of cell extract (in words) ([5]; 60° C. for half an hour): no loss | Residual activity after incubation ([5]; 42 hours at 80° C.): more than 60% | t1/2 upon exposure to the air [6]: about 4 hours | Optimal pH, formation of alcohols (2-butanone reduction) [8]: 7.5 | Optimal pH, oxidation of alcohols (2-butanol) [8]: 10.5 | Highest activity in temperature dependence test ([9]; at 95° C.): 1533 U/mg

B3: T. brockii: T brockii ADH available at Sigma Aldrich, essentially T ehtanolicus ADH (protein, UniProt P14941 1-352, looked up)
NADP-dependent isopropanol …: MKGFAMLSIGKVGWIEKEKPAPGPFDAIVRPLAVAPCTSDIHTVFEGAIGERHNMILGHEAVGEVVEVGSEVKDFKPGDRVVVPAITPDWRTSEVQRGYHQHSGGMLAGWKFSNVKDGVFGEFFHVNDADMNLAHLPKEIPLEAAVMIPDMMTTGFHGAELADIELGATVAVLGIGPVGLMAVAGAKLRGAGRIIAVGSRPVCVDAAKYYGATDIVNYKDGPIESQIMNLTEGKGVDAAIIAGGNADIMATAVKIVKPGGTIANVNYFGEGEVLPVPRLEWGCGMAHKTIKGGLCPGGRLRMERLIDLVFYKRVDPSKLVTHVFRGFDNIEKAFMLMKDKPKDLIKPVVILA
Thermostability ([10]; at 93.8° C.): 60 min at | Solvent tolerance ([10]; isopropanol): 64%

Reference: patent publication US8476051B2, “Thermostable alcohol dehydrogenase derived from Thermococcus guaymasensis” (priority 2008, dated 2013)
